Reference: PMC4178188, “RIG-I Self-Oligomerization Is Either Dispensable or Very Transient for Signal Transduction”

T1: RIG-I (hRIG-I) (human, UniProt O95786 1-925)
T1 sequence: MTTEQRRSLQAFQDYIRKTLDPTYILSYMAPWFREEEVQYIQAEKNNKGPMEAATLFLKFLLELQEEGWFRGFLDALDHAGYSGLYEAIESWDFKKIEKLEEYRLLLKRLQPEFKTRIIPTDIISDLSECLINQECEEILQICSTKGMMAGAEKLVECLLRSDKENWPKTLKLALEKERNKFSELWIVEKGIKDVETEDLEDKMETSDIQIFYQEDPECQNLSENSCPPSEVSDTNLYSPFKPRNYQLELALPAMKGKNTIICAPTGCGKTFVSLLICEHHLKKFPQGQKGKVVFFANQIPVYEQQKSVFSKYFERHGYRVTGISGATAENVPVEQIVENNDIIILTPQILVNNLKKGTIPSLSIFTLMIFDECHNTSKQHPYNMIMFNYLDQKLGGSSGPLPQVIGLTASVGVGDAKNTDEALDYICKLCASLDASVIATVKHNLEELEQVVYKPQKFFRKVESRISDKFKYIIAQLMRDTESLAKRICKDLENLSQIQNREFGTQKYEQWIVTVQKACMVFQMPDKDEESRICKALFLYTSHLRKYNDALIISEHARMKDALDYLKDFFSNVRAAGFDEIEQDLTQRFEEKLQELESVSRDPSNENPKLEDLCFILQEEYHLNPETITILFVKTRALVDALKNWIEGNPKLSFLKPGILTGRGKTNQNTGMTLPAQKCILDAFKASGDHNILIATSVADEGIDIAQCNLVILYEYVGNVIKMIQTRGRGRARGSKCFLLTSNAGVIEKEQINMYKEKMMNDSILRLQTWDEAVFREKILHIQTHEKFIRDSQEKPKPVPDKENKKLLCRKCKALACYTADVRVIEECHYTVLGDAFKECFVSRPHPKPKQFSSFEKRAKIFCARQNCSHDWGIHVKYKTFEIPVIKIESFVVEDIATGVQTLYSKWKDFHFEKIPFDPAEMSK

B1: Measles leader 5'ppp-RNA (MeV-L) (ssRNA)
RNA: GGACCAAACAAAGUUGGGUAAGGAUAGAUCAAUCAAUGAUCAUAUUCUAGUACACUUGAAUUC
modifications: 5'-triphosphate
B2: Rabies leader 5'ppp-RNA (RabV-L) (ssRNA)
RNA: GGACGCUUAACAACAAAACCAGAGAAGAAAAAGACAGCGUCAAUUGCAAACGAAAAAUGUGC
modifications: 5'-triphosphate

Legend:
[1] = biological target: T1, RIG-I (hRIG-I); assay: SEC-MALLS; 2 mM ATP analogue; complex 113 kDa, 1:1; SEC-MALLS: 37 mM RIG-I, 40 mM RNA (units as printed), 2 mM ATP analogue, S200 column; buffer, salt, pH and temperature not in the material; details: protein: recombinant; double-stranded side products or secondary structure possible
[2] = biological target: T1, RIG-I (hRIG-I); assay: SEC-MALLS; 2 mM ATP analogue; complex 110 kDa, 1:1; details: protein: recombinant; double-stranded side products or secondary structure possible

Row | Binder | binding result [1] | binding result [2]
1 | B1 | binds | 
2 | B2 |  | binds
